Data reported in patent US11162087B2, “Beta-glucosidase, enzyme composition including same, and method for manufacturing sugar solution using same” (RIKEN, priority 2017, dated 2021).

Columns and labels:
[1] = Inhibitory action of glucose on the β-glucosidase activity; assay type: biochemical; conditions: 1 mM pNP-Glc, 30° C., 100 minutes
Description: The β-glucosidase derived from a protist of the genus Pseudotrichonympha of the present invention is preferably less likely to suffer from inhibition by glucose on the 3-glucosidase activity. Specifically, when the β-glucosidase activity in the absence of glucose is taken unity, the β-glucosidase activity under a condition of a glucose concentration of 8 g/L (or in the presence of 8 g/L glucose) is preferably 0.5 or more, more preferably 0.6 or more, more preferably 0.7 or more, more preferably 0.8 or more, more preferably 0.9 or more, more preferably 1.0 or more, more preferably 1.1 or more, more preferably 1.2 or more, more preferably 1.3 or more, and in particular preferably 1.4 or more. Further, in addition to the β-glucosidase activity under the condition of the glucose concentration of 8 g/L, when the β-glucosidase activity in the absence of glucose is taken as unity, the β-glucosidase activity under a condition of a glucose concentration of 20 g/L (or in the presence of 20 g/L glucose) is preferably 0.5 or more, more preferably 0.6 or more, and in particular preferably 0.7 or more. The method used herein for measuring the β-glucosidase activity is the same as the above-described method except that 8 g/L or 20 g/L of glucose is added at the time of measuring; and results obtained thereby are used.
An enzyme solution was added to a mixture solution containing 1 mM p-nitrophenyl-β-glucopyranoside (manufactured by Sigma-Aldrich Japan), 50 mM acetic acid buffer and 0, 4, 8 or 20 g/L glucose such that the total amount of the reaction solution became 100 μL, causing a reaction at 30° C. for 100 minutes. Thereafter, 10 μL of 2M sodium carbonate was added and well mixed to stop the reaction, and an increase of absorbance at 405 nm was measured. The activity to release 1 μmol of p-nitrophenol per minute was defined as 1 U. For a blank, 10 μL of 2M sodium carbonate was added to an amount, equivalent to that of the above mixture solution for the reaction solution before addition of the enzyme solution, of a mixture solution containing 1 mM p-nitrophenyl-β-glucopyranoside, 50 mM sodium acetate buffer and 0, 4, 8 or 20 g/L glucose, and mixed well; and then, the enzyme solution was added such that the total solution amount of the blank became 110 μL, causing a reaction at 30° C. for 30 minutes. Thereafter, an increase of absorbance at 405 nm was measured.
In accordance with Reference Example 8, the inhibitory action of glucose on the β-glucosidase activity was measured in enzyme compositions: containing the β-glucosidase and the genus Trichoderma filamentous fungus-derived cellulase prepared in Example 10; and the cell-free extract of β-glucosidase mutant gene transformed E. coli prepared in Example 5. For a comparative control, only the genus Trichoderma filamentous fungus-derived cellulase was used, and the inhibitory action of glucose on the β-glucosidase activity was measured in the same manner. […] That is, both of the enzyme composition containing the β-glucosidase of the present invention and the genus Trichoderma filamentous fungus-derived cellulase, and the cell-free extract of β-glucosidase mutant gene transformed E. coli were less likely to suffer from inhibition on the β-glucosidase activity by glucose, compared to only the genus Trichoderma filamentous fungus-derived cellulase, and the enzyme composition of Comparative Example 1 containing the genus Aspergillus filamentous fungus-derived β-glucosidase and the genus Trichoderma filamentous fungus-derived cellulase.

[2] = β-glucosidase activity measurement with pNP-Glc; assay type: biochemical; conditions: cell-free extract, volume reduced to one-twelfth by ultrafilter membrane; detection limit 0.075
Procedure: In the present invention, “β-glucosidase” means an enzyme that catalyzes a reaction for hydrolysis degradation of a sugar β-glucoside bond. In the present invention, a method for measuring a β-glucosidase activity utilizes a reaction using p-nitrophenyl-β-D-glucopyranoside (pNP-Glc) as a substrate. Specifically, an enzyme liquid is added to a substrate solution prepared by dissolving pNP-Glc in 50 mM acetic acid-sodium acetate buffer solution (pH 5.0) and reacted at 30° C. for 10 minutes; and the reaction is stopped by well mixing with 2M sodium carbonate in an amount equivalent to one-tenth of a reaction system volume to measure an increase of the absorbance at 405 nm. When p-nitrophenol is released and the absorbance at 405 nm is increased after the above reaction, it is determined that the β-glucosidase activity is present.
10 μL of an enzyme diluted solution was added to and reacted with 90 μL of 50 mM acetic acid buffer containing 1 mM p-nitrophenyl-β-glucopyranoside (manufactured by Sigma-Aldrich Japan) at 30° C. for 10 minutes. Thereafter, 10 μL of 2M sodium carbonate was added and well mixed to stop the reaction, and an increase of absorbance at 405 nm was measured. The activity to release 1 μmol of p-nitrophenol per minute was defined as 1 U. For a blank, 10 μL of 2M sodium carbonate was added to and well mixed with 90 μL of 50 mM sodium acetate buffer containing 1 mM p-nitrophenyl-β-glucopyranoside, and thereafter, 10 μL of an enzyme diluted solution was added to cause a reaction at 30° C. for 30 minutes. Thereafter, an increase of absorbance at 405 nm was measured. At this time, the enzyme liquid was diluted so as not to exceed an absorbance at 405 nm of 1. In addition, a calibration curve was created based on absorbances measured by preparing p-nitrophenol solutions at concentrations of 0.1 mM, 0.2 mM, 1 mM and 2 mM; using 10 μL of them instead of an enzyme diluted solution; and adding and well mixing 10 μL of 2M sodium carbonate for color development.

B1: Mutant 2: His-tagged polypeptide of SEQ ID NO: 8, 80% identity with SEQ ID NO: 1; tested as cell-free extract of transformed E. coli (protein)
chain: QIEGLINVMTLEEKVGQMAQLAIDLFIDVPTDTVIPEAARKGIIDYKIGSILNTYGGVSHSKEVWTYINAEFYKYTEETDLKIPILYGLDSIHGANFVNNFTSFPQQIGMAATFNPSLLKEGSRISAYETRAASVGWVFSPVMDLGLDPRWPRIWEGFGEDPYLSSQFGIASVHGFQGKDPNLIDEFHVAACAKHYLAYSNPFTGKDRTPAILSDIFIREYHLPSFKAAVDAGVASVMVNSGLINGIPTHMNHYLLTTVLKEELGFQGVIVTDWQDIENIHTRDHLAPTQKDAVKLAINAGIDMSMIPYNYDFIDYLIELVHEGEVSIDRINDAVRRILKMKAKMNLWDLPVTKSEDYPEFGSEAHANASYTAASESITLLKNENSTLPLAKNTKVLVVGPNSNSHRSLNGGWSYSWQGNAGVQYAVQYNTIYQAIQKVNGEENTVFSQGVRYIETGNYYEDEEVNISESVALARDVDYIILALGENTYTEKPGDLSDLEISQNQIDLAKALASTGKPIILVLNQGRPRIISRIEQLVSAILWIYWPGNYGGDALADILFGDVNPSGKLPVTYPRYSASL
modifications: His tag; amino acid sequence having 80% sequence identity with amino acid sequence of SEQ ID NO 1
notes: tested as cell-free extract of transformed E. coli
- BGL activity (relative value) in the presence of 8 g/L glucose when BGL activity in the absence of glucose is taken as unity ([1]; 8 g/L glucose): 0.74
- BGL activity (relative value) in the presence of 20 g/L glucose when BGL activity in the absence of glucose is taken as unity ([1]; 20 g/L glucose): 0.72
- Increase of absorbance (405 nm) [2]: 0.365
